From publication PMC4823331 come the findings set out here.

The target of this assay is pneumolysin (Streptococcus pneumoniae) (UniProt P0C2J9).

Chain of pneumolysin (P0C2J9 whole entry): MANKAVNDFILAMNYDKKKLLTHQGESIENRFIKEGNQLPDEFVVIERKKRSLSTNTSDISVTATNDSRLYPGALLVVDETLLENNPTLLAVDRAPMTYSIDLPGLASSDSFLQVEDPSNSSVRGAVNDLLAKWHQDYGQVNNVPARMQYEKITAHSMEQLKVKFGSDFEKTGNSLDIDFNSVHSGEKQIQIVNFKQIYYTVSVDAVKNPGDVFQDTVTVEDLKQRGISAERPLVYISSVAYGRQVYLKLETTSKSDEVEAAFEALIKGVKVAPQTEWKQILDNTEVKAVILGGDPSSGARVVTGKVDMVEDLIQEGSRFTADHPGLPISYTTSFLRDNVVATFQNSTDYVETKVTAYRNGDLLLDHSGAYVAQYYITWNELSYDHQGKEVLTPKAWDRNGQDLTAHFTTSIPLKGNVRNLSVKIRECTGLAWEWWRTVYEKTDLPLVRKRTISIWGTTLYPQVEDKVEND

As for “pneumolysin (from UniProt P0C2J9 1-471) (natural protein)”, the k0.5 of the reciprocal lag length before lysis of sheep erythrocytes against pneumolysin concentration (fit with Eq. 3), 30.0 °C was determined as 143 nM; the k0.5 of the reciprocal lag length before lysis of sheep erythrocytes against pneumolysin concentration (fit with Eq. 3), 33.0 °C came out at 176 nM; the k0.5 of the reciprocal lag length before lysis of sheep erythrocytes against pneumolysin concentration (fit with Eq. 3), 35.0 °C amounted to 243 nM; the k0.5 of the reciprocal lag length before lysis of sheep erythrocytes against pneumolysin concentration (fit with Eq. 3), 37.0 °C stood at 405 nM. The same substance returned a k0.5 of the reciprocal lag length before lysis of sheep erythrocytes against pneumolysin concentration (fit with Eq. 3), 38.5 °C of 266 nM.
